Test: label from the status in PepcDB records

| Sequence | protein production |
| --- | --- |
| MDPSTLMILAIVAVAIIVLAVFFTFVPVMLWISALAAGVKISIFTLVGMRLRRVIPNRVVNPLIKAHKAGLNVGTNQLESHYLAGGNVDRVVNALIAAQRANIELTFERCAAIDLAGRDVLEAVQMSVNPKVIETPFIAGVAMDGIEVKAKARITVRANIERLVGGAGEETIVARVGEGIVSTIGSSDNHKKVLENPDMISQTVLGKGLDSGTAFEILSIDIADVDIGKNIGAILQTDQAEADKNIAQAKAEERRAMAVAQEQEMRARVEEMRAKVVEAEAEVPLAMAEALREGNIGVMDYMNIKNIDADTEMRDSFGKLT | failed |
| MDPYFELRLSELKSIPVVTWLQFSIDNAREPGILVQSGQIWALLPPELTEKTRCFAIELGNECMRLKDYDNDDGKRVWLSDDELTRFIEQAETPHQRLAFLLAGRVGLRRSEIIEVCPQDLVDGPTGDHIRVWESYAKRDKYREPPVPQEVVTIAETLAYQQDDDEPLLDVAGSTVYRWVRRAADELEEETGDRGWQYLDVHDLRRTWGTYLLEQGVIPSVVMSFGGWEDWDTFRKHYLGEFSPEAIRRERGKVDFLEGGDESAEVVHPGTMPPASHHTAD | failed |
| MDQFPESVTENFEYDDLAEACYIGDIVVFGTVFLSIFYSVIFAIGLVGNLLVVFALTNSKKPKSVTDIYLLNLALSDLLFVATLPFWTHYLINEKGLHNAMCKFTTAFFFIGFFGSIFFITVISIDRYLAIVLAANSMNNRTVQHGVTISLGVWAAAILVAAPQFMFTKQKENECLGDYPEVLQEIWPVLRNVETNFLGFLLPLLIMSYCYFRIIQTLFSCKNHKKAKAIKLILLVVIVFFLFWTPYNVMIFLETLKLYDFFPSCDMRKDLRLALSVTETVAFSHCCLNPLIYAFAGEKFRRYLYHLYGKCLAVLCGRSVHVDFSSSESQRSRHGSVLSSNFTYHTSDGDALLLL | failed |
| MDQIFNKVGSYWLGQKANKQFDSVGNDLNSVSTSIEGGTKWLVNKIKGKMQKPLPELLKEYDLPIGIFPGDATNYEFDEETKKLTVLIPSICEVGYKDSSVLKFTTTVTGHLEKGKLTDVEGIKTKVMIWVKVTSISTDASKVYFTAGMKKSRSRDAYEVQRNGLRVDKF | not failed |
| MDQKSTTCLEALAKLSQQREHQTTPATLCSSEHFFANETIYSDATFLSTTEEAFISSPSSSTQGPKPGLKRVSTGPMTRILEGCQNDKPNSPELERVEEAEDNYSGTSSEEAFSQGIPYPHQVGGHGALSSFERGRVLKPAAKKEIDFYNFIYSDNLPSELEWLRTVTPKYFGQRKTQAKAKRILENQVTPFSQTSSVPVNTVLHIDRKDSERNIWKDQVGELVMDTNPWARACLLKELQKEDEVKSFIILEDLTCHLKKPCVLDCKMGTRHYDDDATEEKKKAHIEKATKTTSSSTGIRFTGMQVYKLPSHTFLFHDKYYGRQLKSHELKNELFEFFHNGVLLRVDIIEQFLSKLQWLYQHLENQHYFNFYSSSLLFVYEGDEMATCPISDVRMIDFAHTQRCVEEQQNDGYLFGLSNLIHLMKSLLEDERNEMR | failed |
| MDQLWANRAASAEAAITERHLKKLWGLPGTQLGVVAWPPARKYTLFGTWHYWWQAHLLDCLVDAQVRDPQPERTTRIERQLRAHRLRNNLSWVNDYYDDMAWLALAIERAGRLAGVEKPTALRKLCDQFVTAWVPEDGGGIPWRKQDQFFNAPANGPAGIFLARYDDRLRRAQQMADWIDETLIDPDTHLVFDGIKAGSLVRAQYTYCQGVVLGLEVELAVRTQDPRHAPRVRRLVAAVDKEMTTDGVIKGAGGGDGGLFNGILARYLALVATTLPGETPEDIAARDTARTIVLKSARSAWDHRQTVDGLPLFSAFWDRNAEIPTAGGKEAEFVEGAVNASSVPERDLSVQLAGWMLMEAAHSVDSVDAEDAAGDQNGAGDGEVGHDENEDEELEHHHHHH | not failed |
| MDQQYDFGRPMGHERRSKEHDVTMRNRKTLDITGVKQVESFDNEEFLLETEMGFLSIRGRNLHMKNLNVEEGLVSIEGKIFDMVYLEQGQGEKSKGFFGKLFKLEHHHHHH | failed |
| MDRFLVKGAQGGLLRKQEEQEPTGEEPAVLGGDKESTRKRPRGEAPGNGGHSAGPSWRHIRAEGLDCSYTVLFGKAEADEIFQELEKEVEYFTGALARVQVFGKWHSVPRKQATYGDAGLTYTFSGLTLSPKPWIPVLERIRDHVSGVTGQTFNFVLINRYKDGCDHIGEHRDDERELAPGSPIASVSFGACRDFVFRHKDSRGKSPSRRVAVVRLPLAHGSLLMMNHPTNTHWYHSLPVRKKVLAPRVNLTFRKILLTKK | failed |
| MDRKKVMVRHSIASLVALGIFGGSRFLYNVIIGRKYGVETLGYTNSIISQAFFVAGFLAFFSVGLGKFTSEFLGKGEYNRIKKLTGISFTFPFLGLILIPLNFHVALLSVLRAIQLTFRSFIYGLHKGELYAYSVILAFPFFLLGFLDGPLLPYYLLLGTIGIFSLSYLVSRSLIGLPGREDTKALIGFSTWAFLGTIAGIFLLQAPYFLTEKLAGNIEAGIVSVALSTAFLLSYLPQILQSAIVPLYAYDYAKGDDKAIKELAENSTLLLSLFSSLLVFGLIFAKSFVEVLFNIKMGAELLLALIGVELYIAYNPLINLLTATKFVKKSAIFSLIGAMVSGIFWILLIPRLGAIGTLLGLTLGYAIIFALVLWESKRKFNINAKILKPTLLAIPLQLLSLKFPYTILIYLITEIKDIEKVMAFLRDIRS | failed |
| MDRLNQIQIILVETSLSANIGSAARAMKTMGLSNLRLVRPKNPLDEQATALAAGAKNILDNAQIFNTFDAAIADCQLIIGTSARLRHLQSTLVEPRECGKLIINNTNQHKIALIFGRERIGLTNEELLKCHYHLNVPTNPEYESLNLAMAVQLACYEIRMAWLELQKKPIIQPLTEEKNYPTAAAMAHFFDHTERLYKELGFIRNDAVMLKLRRLYQRAKLEENELNLLRGMLTAVEKHRIS | failed |
| MDRMDKAAKINIINANVRNAQTGDYYYNPYKIVNKTFTDTDGKQVTLKIGITGVLPTQILVWDKANLEGKVTVDDPMEAVKTIVPQMKAAGADFILVAAHSGIGDNEYTKNEENEGYQIAGIEGVDAVATGHSHADFPNGDGTSFYAKYPGVDDVNGLINGKPVVMAGKFGDHLGIMDVKLTYTDGKWKVVNSKAKLEKIDTKSDIADKALIDMAAHDHDGTILTMFVRKLVRPLPQSLAILLKFRTIHLFKS | failed |
| MDRNIDQELVSIIIPTHNRYESLIRAVKSCLHQSYKNIEVIIIDDNYSNVNLRNKIIHQFGYTNHRIKLILSNEDLGATNARNIGIKNSRGKYISFLDDDDEYMPDRILKLMACFKKSRMKNLALVCSYGIIIYPNGTREEEKTDFVGNPLFVQMVHNIAGTSFWLCKKEVLELINGFEKIDSHQDGVVLLKLLVQGYQIDIVREFLVNYYAHSKENGITGVTQKTINADEEYYNYCRKYFNLLSFNERILVTKKYYSLNIKRLLLIGDKCKALKVIKKAREEKIFNEFLF | failed |
| MDRNYSNWQSLTSLALFLLPFLFIGWLFDLFWPVTALALLGLVCWHYYYQQKLIKWLWQSRTLMPPSAPGSWSYIYDGIYRSQRRSQKRRKALARLLRRFREAAEALPDAAIVFRADGALLWSNKLAQFYFGLRWPDDAGQRLSNLIRHPEFYAYLNAGNFDEELTIPSPIRESLDIEIRIMPYSEDQFLLVARDVTQVKRLENLRREFVANVSHELKTPLTVLQGYLEMMDEPQQTPPAMLKKAVENMNAQSTRMANLVDQLLTLSRMETPSNDVFDHEVDMPALLEQLESEAKRLNEVKQHKIEFDVAPVRIYGKENLLRSAMQNLITNAINYTPDGGEIKVTWKTVAGGVEFSVKDNGKGIAAEHLPRLTERFYRVEDDRNSASGGTGLGLSIVKHAIEHHNSQLDINSSLEKGSRFSFRIPSGLLVS | failed |
| MDSDADGGETVSNFSENSTDFEETEEYIVERILDRRHYMGQLQYLVKWLDYSDEDNTWESAADLDCHSLIDSIESQKSLKRGQELNNQYETKAKRLKIDP | failed |
| MDSQSENGSGAGNRTSIERRGDRELVVTRTFDAPRAMVYRAWSEPELFRRWWMPKSATGVTLVSCDMDVRTGGKYRLEFSTGGPQTMAFYGKYLDVVPNERIVWTNDEGEADAGEKGAITTVTFEDHGSQTLLRFHEVYPTAEALEEALQGSAAALPEQFDQLGEVLSGSGGKQ | failed |
| MDTAASPLTYRDATDADVDALVALIESAYRGDASRAGWTTEADILQGQRTDPQGVLEVVKAPDSRLLTVERDGRIVACCQLEHRGAHAYFGMFAVSPALQGAGLGKAIIAEAERQARTTWGVTEMHMTVISVRDDLIAWYERRGYRRTGETTPFPYGDERFGIPQRADLRFELLVKPLV | failed |
| MDTAVVYYVLATALVLIGLAGVILPALPGLPLVFAGLLVAAWADNFTHIGWVTLVVLGLITALSYLVDFLATLYGAQRVGASKMALWGSVIGGIAGIFFMPIGLFIGPFAGAWLGEYYQTRKSGQATKVGIGTWVGIMLGTATKLALGLCMLGAFAIGWFF | failed |
| MDTMSQILKLLEKTDSIEINEFRMDVDELELTIMPTLQNVVQKVVEKQIEAKKEFESQIEFKYPVKDYAGKVNEVKLGGKNRKTVKLGGQTSLYRFEEPQPNAPTVTFDVFDIPMNGLPRPIKENFEDVMHSPGEWAQKAVKEFGADMITLHLIGTDPKVKDKSLKDAAKDLEEVLQAVKVPLVIGGSGNPKKDPLVLEMAAEVADGERCLLASANLDLDYQKIAQAAVKHDHAVLSWAISDINMQKVLNKALMKEGLTANDIVMDPTTCALGYGIEFSIDVMTRTRLSALKGDEILQMPMSSGTTNAWGSREAWMKKDEWGPTKYRGPIWEVVTGLTMMLCGVDIFMMLHPLSVKTLKEIGTTLTYEYKSKESQDISDWINKF | not failed |
| MDTPSRRSFLLAGGSFAIGVGAGLGIAHRDDVLPSRVVWAFETTGRIVSSPTVGDGTVYVGSDDSTVHSVSTSDGTRRTTARLHTKAGVFSSPALGADGGLYVGSTDTAIYGLFSSPGARDEWRFETTDWVTASPAVADGTVYVGSTDGTMYALNAETGAEQWRFETGDGIVSSPAVVDGTVYVGSTDGTVYALDADSGTDRWQFDTEGRVYSSPTVADGTVYVGSYDANIYAIDTTDGVEQWQFETGDSIWSSPTVLEETLWIGSKDAALYAVATEDGSEQWRFPTGGEVNSSPTVAGETVYVGSDDANLYAVAASDGSERWTFETGGAVQSSPTVADGTVYVGSGDSTLYALDADETGSSEGSRAELRTLGYFAE | failed |
| MDTRKNVSGAERKIWSLIRDCSGKLEGVTETSVLEVLLIVSRVLGIRKEDLFLKDLGVSPTEEKRILELVEKRASGYPLHYILGEKEFMGLSFLVEEGVFVPRPETEELVELALELIRKYGIKTVADIGTGSGAIGVSVAKFSDAIVFATDVSSKAVEIARKNAERHGVSDRFFVRKGEFLEPFKEKFASIEMILSNPPYVKSSAHLPKDVLFEPPEALFGGEDGLDFYREFFGRYDTSGKIVLMEIGEDQVEELKKIVSDTVFLKDSAGKYRFLLLNRRSS | not failed |

From a protein production outcome set (Wang et al. 2014)
